Data published in patent US20210179707A1 (published 2021).
Each block holds one binder with its values, some of them ahead of it.

Tests used:
hPAR4 (Biotin) [1] = biological target: T1, hPAR4 (Biotin) (human, biotin on the C-terminal lysine (GGGGSK-biotin, SKB)); assay: SPR (Biacore T200), biotinylated hPAR4 peptide on SA chip, mAb as analyte
T1 construct: also called hPAR4 biotinylated peptide; Human PAR4 peptide (biotinylated)
T1 peptide: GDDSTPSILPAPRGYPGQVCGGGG

[2] = biological target: T2, human PAR4 on isolated human platelets (human, UniProt Q96RI0 18-385); assay: flow cytometry on isolated human platelets
T2 construct: Native receptor of donor platelets (genotypes AA, AT, TT at residue 120); also called hPAR4
T2 sequence: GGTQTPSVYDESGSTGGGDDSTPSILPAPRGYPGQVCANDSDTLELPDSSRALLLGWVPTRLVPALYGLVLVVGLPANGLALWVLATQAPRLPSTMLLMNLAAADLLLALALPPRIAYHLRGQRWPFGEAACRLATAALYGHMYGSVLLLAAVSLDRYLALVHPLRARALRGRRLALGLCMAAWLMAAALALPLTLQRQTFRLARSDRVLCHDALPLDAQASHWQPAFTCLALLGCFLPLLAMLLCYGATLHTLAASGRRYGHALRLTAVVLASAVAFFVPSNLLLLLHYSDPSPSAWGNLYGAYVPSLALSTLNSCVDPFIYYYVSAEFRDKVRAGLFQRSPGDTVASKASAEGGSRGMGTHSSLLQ

hPAR3 (Biotin) [3] = biological target: T3, hPAR3 (Biotin) (human, biotin on the C-terminal lysine (GGGGSK-biotin, SKB)); assay: ELISA, biotinylated peptides on streptavidin plate
T3 construct: also called hPAR3 peptide
T3 peptide: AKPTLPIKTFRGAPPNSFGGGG
Description: (§1) Biotinylated peptides (hPAR1-4) were diluted in Wash buffer and allowed to bind to the blocked Streptavidin coated wells at 10 ug/ml (100 ul per well) for 1 hour at room temperature with gentle mixing. Wells were washed 3 times as above and purified anti-hPAR4 mAbs prepared at 10 ug/ml in Wash buffer were allowed to bind (100 ul/well) for 1 hour at room temperature with gentle mixing. The plate was washed 3 times as above and anti-mouse Fc conjugated to Alkaline phosphatase (AP) at 0.3 ug/ml (100 ul) was added to the wells for 1 hour as above. Wells were washed 3 times as above and developed with Alkaline Phosphatase substrate as described for the screening supernatant ELISA.
(§2) To further characterise the purified anti-hPAR4 mAb's the specificity of the mAbs to hPAR1, hPAR2, hPAR3 and hPAR4 biotinylated peptides was performed.

hPAR1 (Biotin) [4] = biological target: T4, hPAR1 (Biotin) (human, biotin on the C-terminal lysine (GGGGSK-biotin, SKB)); assay: ELISA, biotinylated peptides on streptavidin plate
T4 construct: also called hPAR1 peptide
T4 peptide: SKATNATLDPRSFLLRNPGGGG
Description: as §1, §2

hPAR2 (Biotin) = biological target: T5, hPAR2 (Biotin) (human, biotin on the C-terminal lysine (GGGGSK-biotin, SKB)); assay: ELISA, biotinylated peptides on streptavidin plate
T5 construct: also called hPAR2 peptide
T5 peptide: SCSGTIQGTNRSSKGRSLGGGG
Description: as §1, §2

hPAR4 (Biotin) [5] = biological target: T1, hPAR4 (Biotin); assay: SPR (Bio-Rad ProteOn XPR36), biotinylated peptide captured, antibody as analyte
hPAR3 (Biotin) [6] = biological target: T3, hPAR3 (Biotin); assay: ELISA, hybridoma supernatant
hPAR1 (Biotin) [7] = biological target: T4, hPAR1 (Biotin); assay: ELISA, hybridoma supernatant

B1: 5A.RC3 (antibody, IgG2a, V domains shown)
VH: QVQLVESGGGVVQPGRSLRLSCAASGFTLSNYGMHWVRQAPGKGLEWVSVIWYDGSNKHYADSVKGRFTISRDNSKNTLYLQMNSLRAEDTAVYYCARESIVEVLPPFDYWGQGTLVTVSS
VL: KIVLTQSPGTLSLSPGERVTLSCRASQRVRNNYLAWFQQKPGQAPRLFIYGASSRATGIPDRFSGSGSGTDFIFTISRLEPEDFAVYYCQQYGNSYTFGQGTKLEIK
notes: Human variable regions on mouse constant regions (HumAb mice); isotype IgG2a/κ; also called 5A.RC3.F10b.H4b; MoB5A-RC3.F10b.H4b
- Kd (hPAR4 (Biotin) [1]): 0.32 nM
- koff (hPAR4 (Biotin) [1]): 0.000417 s⁻¹
- kon (hPAR4 (Biotin) [1]): 1.32e+06 M⁻¹ s⁻¹
- Binding to human platelets, FACS GMFI at 10 ug/ml (over isotype control) [2]: 39 GMFI
- binding result (hPAR3 (Biotin) [3]): no binding (tested: 10 ug/ml)
- binding result (hPAR1 (Biotin) [4]): no binding (tested: 10 ug/ml)
- binding result (hPAR2 (Biotin)): no binding (tested: 10 ug/ml)
- Kd (hPAR4 (Biotin) [5]): ~0.4 nM

B4: 5D.RH4 (antibody, IgG2a, V domains shown)
VH: QIQLVESGGGVVQPGRSLRLSCAASGFTFSSDGMHWVRQAPGKGLEWVAVIWFDGRNKYYLDSVKGRFTISRDNSKNTLYLQMNSLRAEDTAVYYCARESSISTRPPFDYWGQGTLVTVSS
VL: not shown
notes: Human variable regions on mouse constant regions; isotype IgG2a/κ; also called 5D.RH4.G7.E6.C7b.G7
- Binding to human platelets, FACS GMFI at 10 ug/ml (over isotype control) [2]: 33 GMFI

B5: 5G.RG1 (antibody, IgG1, V domains shown)
VH: QVQLVESGGGVVQPGRSLRLSCVASGFTLSSYGMHWVRQAPGKGLEWVAVIWYDGSSKYYTDSVKGRFDISRDNSKNTLYLQMNILRAEDTAVYYCARETILIGGVPFDYWGQGTLVTVSS
VL: EIVLTQSPGTLSLSPGERATLSCGASQSIRSNYLAWYQQKPGQAPRLLIYGASSRATGTPDRFSGSGSGTDFTLTITRLEPEDFALYYCQQYGRSYTFGQGTKLEIK
notes: Human variable regions on mouse constant regions; isotype IgG1/κ; Tested as parent hybridoma supernatant (MoB5G G1); also called 5G RG1.D3.C2b; MoB5G G1
- Binding to PAR3 ratio (hPAR3 (Biotin) [6]): 0.8 ratio
- Binding to PAR1 ratio (hPAR1 (Biotin) [7]): 1.1 ratio

B6: 5G.RA1 (antibody, IgG2a, V domains shown)
VH: QVQLVESGGGVVQPGRSLRLSCAASGFTFSSYGMHWVRQAPGKGLEWVAVIWYDGSNKYYADSVKGRFTISRDNSKNTLYLQMNSLRAEDTAVYYCARETALVRGVPFDYWGQGTLVTVSS
VL: not shown
notes: Human variable regions on mouse constant regions; isotype IgG2a/κ; also called 5G.RA1.E10.G3; MoB5G A1
- Binding to human platelets, FACS GMFI at 10 ug/ml (over isotype control) [2]: 25 GMFI

B7: 5F.RE6 (antibody, IgG2a, V domains shown)
VH: QVQLAESGGGVVQPGRSLRVSCAASGFTFSSYGMHWVRQAPGKGLEWVAVIWYDGTKKYYADSLKGRFTISRDNSKYTLYLQMNSLRADDTALYFCARKGARGITGLDYWGQGTLVTVSS
VL: DIQMTQSPSSLSASAGDRITITCRASQSISNYLNWYQQKPGKAPKLLIYAASSLQSGVPSRFSGSGSGTDFTLTISSLQPEDFASYYCRQNYNTPLTFGGGTKVEIK
notes: Human variable regions on mouse constant regions; isotype IgG2a/κ; Tested as parent hybridoma supernatant (MoB5F E6); also called 5F RE6.D3.E7; MoB5F E6
- Binding to PAR3 ratio (hPAR3 (Biotin) [6]): 0.8 ratio
- Binding to PAR1 ratio (hPAR1 (Biotin) [7]): 1.1 ratio

B9: 5H.RA3 (antibody, IgG2a, V domains shown)
VH: QVQLVESGGGVVQPGRSLRVSCAASGFTFSSYGMLWVRQAPGKGLEWVAVIWYDGTKKYYADSLKGRFTISRDNSKYTLYLQMNSLRADDTALYFCARKGARGITGLDYWGQGTLVTVSS
VL: not shown
notes: Human variable regions on mouse constant regions; isotype IgG2a/κ; also called 5H.RA3.D3b.A2b; MoB5H A3
- Binding to human platelets, FACS GMFI at 10 ug/ml (over isotype control) [2]: 100 GMFI

B11: 5F.RF3 (antibody, IgG2b, V domains shown)
VH: QVQLVQSGAEVKKPGASVKVSCKTSAYTFTNYGISWVRQAPGQGLEWMGWISPYNGNTNYAQKLQGRVTMTTDTSTRTAYMELRSLRSDDTAVYYCAREYNRSSRGRYYYYGMDVWGQGTTVTVSS
VL: EIVLTQSPGTLSLSPGERATLSCRASQSVSSNYLAWYQKKPGQAPRLLISGASSRATGIPDRFSGSGSGTDFTLTISRLEPEDFAVYYCQQYGSSPWTFGQGTKVEIK
notes: Human variable regions on mouse constant regions; isotype IgG2b/κ; also called 5F.RF3.A7b.C9; MoB5F-RF3.A7b.C9
- Binding to human platelets, FACS GMFI at 10 ug/ml (over isotype control) [2]: 53 GMFI

The remaining lines, values ahead:

- Binding to PAR3 ratio (hPAR3 (Biotin) [6]): 0.9 ratio
- Binding to PAR1 ratio (hPAR1 (Biotin) [7]): 1 ratio
B2: 5H.RD2 (antibody, IgG1, V domains shown)
VH: EVQLVESGGDLVKPGGSLRLSCSASGFTFFNTWMNWVRQAPGKGLEWVGRVKSKNDGGTKDYAAPVTGRFTISRDDSKDTLYLQMNSLKTEDTAVYYCTTDPHYDFWSAYWGQGTLVTVSS
VL: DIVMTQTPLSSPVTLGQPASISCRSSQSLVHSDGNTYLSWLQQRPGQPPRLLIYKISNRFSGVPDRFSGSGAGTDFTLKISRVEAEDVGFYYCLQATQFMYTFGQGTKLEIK
notes: Human variable regions on mouse constant regions; isotype IgG1/κ; also called 5H.RD2.A7b; MoB5H-RD2.A7b

- Binding to PAR3 ratio (hPAR3 (Biotin) [6]): 0.9 ratio
- Binding to PAR1 ratio (hPAR1 (Biotin) [7]): 1 ratio
B3: 5H.RH4 (antibody, IgG2b, V domains shown)
VH: QVQLQQWGAGLLKPSETLSLTCAVYGGSFSNYYWSWIHQPPGKGLEWIGEINHSGSTNYNPSLKSRVTISVDTSKKQFSLNLSSVTAADTAVYYCKVEHSSSSGHYYYGMDVWGQGTTVTVSS
VL: DIQMTQSPSSLSASVGDRVTITCRASQTISYYLNWYQQKPGKAPKLLIYAASRLQSGVPSRFSGSGSGTDFTLTISSLQPEDFTTYYCQQSYSTPLTFGGGTKVGIK
notes: Human variable regions on mouse constant regions; isotype IgG2b/κ; Tested as parent hybridoma supernatant (MoB5H H4); also called 5H RH4.C8b.A3.A6; MoB5H H4

- Kd (hPAR4 (Biotin) [1]): 0.36 nM
- koff (hPAR4 (Biotin) [1]): 0.000667 s⁻¹
- kon (hPAR4 (Biotin) [1]): 1.85e+06 M⁻¹ s⁻¹
- Binding to PAR3 ratio (hPAR3 (Biotin) [6]): 1 ratio
- Binding to PAR1 ratio (hPAR1 (Biotin) [7]): 1 ratio
- binding result (hPAR3 (Biotin) [3]): no binding (tested: 10 ug/ml)
- binding result (hPAR1 (Biotin) [4]): no binding (tested: 10 ug/ml)
- binding result (hPAR2 (Biotin)): no binding (tested: 10 ug/ml)
B8: 5I.RG1 (antibody, IgG3, V domains shown)
VH: QVQLQQWGAGLLKPSETLSLACAISSGSFSTYFWRWIRQPPGKGLEWIGEIIHTGSTTYNPSLKSRVTISVDTSKNQLSLKLSSVTAADTAVYYCAFEYSSSGGYYYGMDVWGQGTTVTVSS
VL: DIQMTQSPSSLSASVGDRVTITCRASQSISSYLNWYQQIPGKAPNLLIYAASSLRSGVPSRFSGSGSGTDFTLTISSLQPEDFATYYCQQTYSTPLTFGGGTKVEIK
notes: Human variable regions on mouse constant regions; isotype IgG3/κ; also called 5I.RG1.D6.C1b; 51.RG1

- Kd (hPAR4 (Biotin) [1]): 0.61 nM
- koff (hPAR4 (Biotin) [1]): 0.00111 s⁻¹
- kon (hPAR4 (Biotin) [1]): 1.84e+06 M⁻¹ s⁻¹
- Binding to PAR3 ratio (hPAR3 (Biotin) [6]): 0.9 ratio
- Binding to PAR1 ratio (hPAR1 (Biotin) [7]): 1 ratio
- binding result (hPAR3 (Biotin) [3]): no binding (tested: 10 ug/ml)
- binding result (hPAR1 (Biotin) [4]): no binding (tested: 10 ug/ml)
- binding result (hPAR2 (Biotin)): no binding (tested: 10 ug/ml)
B10: 5H.RF2 (antibody, IgG2a, V domains shown)
VH: QVQLQQWGAGLLKPSETLALTCAVYGGSLSDYYWSWIRQPPGKGLEWIGEINHSGTTNYNPSLKSRVTISVDTSKKQFSLKLSSVTAADTAVYYCAIEYSNSRGYYYGMDVWGQGTTVTVSS
VL: DIQMTQSPSSLSASAGDRITITCRASQTISNYLNWYQQKPGKAPKLLIYAASSLQSGVPSRFSGSGSGTDFTLTISSLQPEDFASYYCRQNYNTPLTFGGGTKVEIK
notes: Human variable regions on mouse constant regions; isotype IgG2a/κ; also called 5H.RF2.A5b.D3.C2; MoB5H F2
